Reference: article PMC3526264, “The C-terminus of Dpb2 is required for interaction with Pol2 and for cell viability” (Nucleic Acids Research, 2012)

B1: Dpb3 (natural protein, S. cerevisiae, UniProt P27344 1-201, looked up)
chain: MSNLVKEKAPVFPISKVKKIAKCDPEYVITSNVAISATAFAAELFVQNLVEESLVLAQLNSKGKTSLRLSLNSIEECVEKRDNFRFLEDAIKQLKKNSALDKKRELNMQPGRSDQEVVIEEPELHEDDGVEEEEEEDEVSEEEEPVHNEELLDDSKDQQNDKSTRSVASLLSRFQYKSALDVGEHSDSSDIEVDHTKSTDP
notes: Dpb3, subunit of DNA polymerase epsilon, S. cerevisiae; over-expression vector pJL5 (Dpb3 and Dpb4); source: S. cerevisiae pY116, galactose-induced over-expression (pJL5), co-expressed with the other Pol ε subunits
B2: Dpb4 (natural protein, S. cerevisiae, UniProt Q04603 1-196, looked up)
chain: MPPKGWRKDAQGNYPTTSYIKEQENITIQDLLFPKSTIVNLAREVPQQSGKKLLINKDASLALQRGATVFVNHLLLFAREIAKSQDKKSCSVDDVLSALDHIGHSALKGPVRDKLDEYQAAVEQRKKEKLDSGEVDADGDIDMGEDKENVPVEKVKEHDEIEEQGDALQDVEESSEKKQKTESQDVETRVQNLEQT
notes: Dpb4, subunit of DNA polymerase epsilon, S. cerevisiae; over-expression vector pJL5 (Dpb3 and Dpb4); source: S. cerevisiae pY116, galactose-induced over-expression (pJL5), co-expressed with the other Pol ε subunits

Target: T1, Pol2 (S. cerevisiae, UniProt P21951 1-2222)
T1 construct: Pol2, catalytic subunit of DNA polymerase epsilon, S. cerevisiae; over-expression vector pJL1; also called catalytic subunit of DNA polymerase ε; source: S. cerevisiae pY116, galactose-induced over-expression (pJL1), co-expressed with the other Pol ε subunits
T1 sequence (P21951 whole entry): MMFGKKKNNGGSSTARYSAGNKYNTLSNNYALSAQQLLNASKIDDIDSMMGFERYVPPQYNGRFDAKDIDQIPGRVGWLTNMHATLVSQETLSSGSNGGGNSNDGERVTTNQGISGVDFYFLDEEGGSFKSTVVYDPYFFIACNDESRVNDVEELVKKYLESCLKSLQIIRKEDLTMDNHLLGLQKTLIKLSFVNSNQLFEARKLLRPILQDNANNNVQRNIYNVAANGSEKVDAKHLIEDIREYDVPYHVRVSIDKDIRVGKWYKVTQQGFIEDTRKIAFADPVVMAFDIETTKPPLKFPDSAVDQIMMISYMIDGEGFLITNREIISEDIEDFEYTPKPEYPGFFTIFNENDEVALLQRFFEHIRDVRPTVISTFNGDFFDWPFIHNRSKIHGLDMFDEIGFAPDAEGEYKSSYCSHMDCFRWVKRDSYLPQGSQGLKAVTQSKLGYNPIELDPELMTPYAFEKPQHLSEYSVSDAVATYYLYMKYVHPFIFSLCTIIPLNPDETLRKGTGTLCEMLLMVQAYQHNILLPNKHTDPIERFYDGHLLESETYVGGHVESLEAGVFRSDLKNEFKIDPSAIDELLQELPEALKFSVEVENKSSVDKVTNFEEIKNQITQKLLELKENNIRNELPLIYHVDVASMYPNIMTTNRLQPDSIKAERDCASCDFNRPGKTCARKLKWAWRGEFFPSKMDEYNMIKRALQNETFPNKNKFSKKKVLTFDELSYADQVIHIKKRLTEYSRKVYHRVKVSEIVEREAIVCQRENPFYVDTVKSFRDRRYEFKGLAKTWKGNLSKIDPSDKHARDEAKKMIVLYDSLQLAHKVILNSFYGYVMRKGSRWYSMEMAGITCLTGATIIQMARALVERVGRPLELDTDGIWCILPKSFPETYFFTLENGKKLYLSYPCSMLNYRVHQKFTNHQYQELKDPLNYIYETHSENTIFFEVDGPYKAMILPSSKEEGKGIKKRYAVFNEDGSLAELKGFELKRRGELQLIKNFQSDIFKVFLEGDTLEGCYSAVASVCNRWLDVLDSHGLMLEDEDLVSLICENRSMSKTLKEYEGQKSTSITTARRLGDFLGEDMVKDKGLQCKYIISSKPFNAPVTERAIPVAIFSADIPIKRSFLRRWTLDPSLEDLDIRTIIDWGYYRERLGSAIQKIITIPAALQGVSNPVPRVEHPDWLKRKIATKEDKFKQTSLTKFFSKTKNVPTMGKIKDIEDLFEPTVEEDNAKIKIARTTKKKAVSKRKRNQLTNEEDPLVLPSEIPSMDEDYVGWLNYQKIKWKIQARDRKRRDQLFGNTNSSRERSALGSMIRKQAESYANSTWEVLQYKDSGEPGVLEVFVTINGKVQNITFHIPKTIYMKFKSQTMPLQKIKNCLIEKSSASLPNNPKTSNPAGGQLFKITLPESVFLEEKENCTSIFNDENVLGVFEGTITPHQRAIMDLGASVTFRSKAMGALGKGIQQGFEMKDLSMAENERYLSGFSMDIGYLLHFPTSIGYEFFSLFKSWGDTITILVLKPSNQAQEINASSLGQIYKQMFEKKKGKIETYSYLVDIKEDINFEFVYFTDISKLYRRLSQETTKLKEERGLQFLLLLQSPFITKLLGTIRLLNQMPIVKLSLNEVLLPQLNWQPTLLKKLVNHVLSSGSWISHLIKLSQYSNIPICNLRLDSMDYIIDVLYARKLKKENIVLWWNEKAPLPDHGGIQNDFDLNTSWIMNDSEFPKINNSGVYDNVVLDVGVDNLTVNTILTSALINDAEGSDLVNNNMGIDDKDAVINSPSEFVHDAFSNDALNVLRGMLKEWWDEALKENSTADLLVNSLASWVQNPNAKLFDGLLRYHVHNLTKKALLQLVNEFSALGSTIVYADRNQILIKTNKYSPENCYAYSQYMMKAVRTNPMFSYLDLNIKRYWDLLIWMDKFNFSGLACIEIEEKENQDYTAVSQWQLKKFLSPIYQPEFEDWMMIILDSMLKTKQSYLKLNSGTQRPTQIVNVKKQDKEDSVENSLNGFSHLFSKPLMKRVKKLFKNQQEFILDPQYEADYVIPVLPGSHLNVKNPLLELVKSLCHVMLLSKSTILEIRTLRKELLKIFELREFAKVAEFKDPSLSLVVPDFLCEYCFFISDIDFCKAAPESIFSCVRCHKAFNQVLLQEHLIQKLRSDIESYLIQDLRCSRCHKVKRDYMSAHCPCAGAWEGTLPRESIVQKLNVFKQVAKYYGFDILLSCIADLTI
Experiment: co-purification (ion-exchange and size-exclusion chromatography); Pol2, Dpb2-201, Dpb3 and Dpb4 co-over-expressed in S. cerevisiae pY116; Pol ε purification protocol as in ref. 23; Coomassie-stained 10% SDS-PAGE, band intensities measured
Conditions: partners not purified

stoichiometry N | Binder
~1.1 Dpb3 per Pol2 | B1
~1.4 Dpb4 per Pol2 | B2
